Changes are numbered by the printed parent chain. In names and notes the source's numbering stands.
B1: human BLVRB (Homo sapiens) (protein)
chain: AVKKIAIFGATGQTGLTTLAQAVQAGYEVTVLVRDSSRLPSEGPRPAHVVVGDVLQAADVDKTVAGQDAVIVLLGTRNDLSPTTVMSEGARNIVAAMKAHGVDKVVACTSAFLLWDPTKVPPRLQAVTDDHIRMHKVLRESGLKYVAVMPPHIGDQPLTGAYTVTLDGRGPSRVISKHDLGHFMLRCLTTDEYDGHSTYPSHQYQ
notes: pET21
B2: human BLVRB (Homo sapiens; T164S) (protein)
chain: B1 chain with T163S
notes: pET21

Substrate: Cc1cc2nc3c(=O)[nH]c(=O)nc-3n(C[C@H](O)[C@H](O)[C@H](O)COP(=O)(O)OP(=O)(O)OC[C@H]3O[C@@H](n4cnc5c(N)ncnc54)[C@H](O)[C@@H]3O)c2cc1C
Test: purified protein
Assay type: biochemical, Homo sapiens
Settings: co-substrate NADPH 400 µM; enzyme 20 µM

Protein | Km | kcat
B1 | 242 ± 36 µM | 0.16 ± 0.03 s⁻¹
B2 | 171 ± 33 µM | 0.1 ± 0.03 s⁻¹

— paper PMC11675717, “Evolutionary Adaptations in Biliverdin Reductase B: Insights into Coenzyme Dynamics and Catalytic Efficiency” (International Journal of Molecular Sciences, 2024)
